# Changes are numbered by the printed parent chain.
# B1: MAb049 (antibody, IgG1, V domains shown)
# VH: EVQLQQSGPELVKPGASVKISCKASGHTLTDYYMNWVKQSHGKSPEWIGDINPNNDGIDYNQKFRGKAILTVDKSSSSFYMELRSLTSEDSAVYYCVGFVRGYFVSWGQGTTLTVSS
# VL: DIQMTQTTSSLSASLGDRVTINCRASQDISNYLNWYQQKPDGTVKLLIYYTSRLRSGVPSRFSGSGSGTDYSLTINNLDQEDFATYFCQQGNTLPWTFGGGTKLEI
# B2: MAb047 (antibody, IgG2c, V domains shown)
# VH: EVQLVESGGGLVKPGGSLKLSCAASGFTFSDYGMYWIRQAPEKGLEWVAYISNGGSSIYYADTVKGRFTVSRDNAKNTLFLQMTSLRSEDTAIYYCARGGELGFAYWGQGTLVTVSA
# VL: DIQMTQSPASLSVSVGETVTITCRASENIYSNLAWYQQKQGKSPQLLVYAAINLVEGVPSRFSGSGSGTQYSLKINSLQSEDFGSYFCQHFWGLPYTFGGGTKLE
# B3: MAb064 (antibody, IgG2c, V domains shown)
# VH: QVQLKESGPGLVAPSQTLSITCSVSGFSLTNYAVSWVRQPPGKGLEWLGVMWGDGNTNYHSTLISRLSISKDNSKSQVFLKLNSLQTDDTATYYCARSSGWYFDVWGTGTTVTVSS
# VL: DIQMTQTTPSLSVTLGDRVTIRCRASQDINNYLNWYQQKPDGTVKLLIYYTSESRSGVPSRFSGSGSGTDYSLTISNLEQEDIATYFCQQGYALPPAFGGGTKLEIK
# B4: MAb053 (antibody, IgG2c, V domains shown)
# VH: QVQLKQSGPGLVQPSQSLSIICTVSGFSLSDYGVMWVRQSPGKGLEWLGVIWSGGSTDYNAAFTSRLSISRDNSKRQVIFKMNSLQAEDTAIHYCVRETMDYWGQGTSVTVS
# VL: DIQMTQTTSSLSASLGDRVTISCRASQDISNYLNWYQQRPDGTVKRLIYYTSRLHSGVPSRFSGSGSGTDYSLTISSLEQEDIATYFCQQAHTLPWTFGGGTKLEIK
# B5: MAb055 (antibody, IgG1, V domains shown)
# VH: QVQLKQSGPGLLQPSQSLSITCTVSGFSLDEYGVHWFRQSPGKGLEWLGVIWSGGSTDYNAAFISRLSIRKDNSKSQIFFNMNSLQADDTAIYYCVREEWEYWGQGTTLTVS
# VL: B4 VL with A25P, S30D, Y36F, V44I, R46L, S76N, S77N, W96Y
# B6: MAb058 (antibody, IgG1, V domains shown)
# VH: EVQLQQSGPVLVKPGAAVKMSCKASGYIFTDYYIHWVKLSRGESLEWIGLINPYNGGTNYNQQFTGKATLTVDKSSSTAYVELNSLTSGDSAVYYCVRRTGYFDYWGQGTTLTVSS
# VL: DVVMTQTPLSLPVSLGDQASISCRSSQSLVHSNGNTYLHWYLQKPGQSPKLLIYKVSNRFSGVPDRFSGSGSGTDFTLKISRVEAEDLGVYFCSQTTHVPYTFGGGTKLEIK
# B7: MAb041 (antibody, IgG1, V domains shown)
# VH: EVQLVESGGGLVKPGGSLKLSCAVSGFTFSNSAMSWVRQTPEKRLEWVATITDGGDYTYYSDNVKGRFTISRDNAKNNLYLQMSHLKSEDTAMYYCVRGISYWGQGTLVTVS
# VL: DIVLTQSPASLAVSLGQRATISCRASKSVSTSSDSYMHWYQQKPGQPPKLLIKYASNLESGVPVRFSGSGSGTDFTLNIHPVEEEDAATYYCQHSREFPWTFGGGTKLEIK
# B8: MAb033 (antibody, IgG1, V domains shown)
# VH: QVQLQQSGAELVRPGTAVRVSCKASGYAFTNYFIEWVKQRPGQGLEWIGVINPGSGDTYYSEKFQGKATLTADKSSSTAYMQLSSLTSEDSAVYFCAREDDYSWFTYWGQGTLVTVSA
# VL: DIVLTQSPASLAVSLGQRATISCRASENVDNYGISFMHWYRQKPGQPPKLLIYRASNLESGIPARFSGSGSRTDFTLTINPVETDDVATYYCQQSNKDPYTFGGGTKLEIK
# B9: MAb035 (antibody, IgG1, V domains shown)
# VH: QVQLQQSGAELVRPGASVTLSCKASDYTFTDYEMHWVYQTPVHGLEWIGAIDPETGGTAYNQKFKDKAILTADKSSNTAYMELRSLTSEDSAVYFCTKTGYQFDYWGQGTTLTVSS
# VL: DIVMTQSQKFMSTSVGDRVSVTCKASQNVGSNVAWYQQKPGQSPKALIYSASYRYSGVPDRFAGSGSGTDFTLTISNVQSEDLADYFCQQYNSHPYTFGGGTKLEIK
# B10: MAb034 (antibody, IgG1, V domains shown)
# VH: EVQLQQSGPVLVKPGASVKMSCKASGYTFTDFYMNWMRQSHGKSLEWIGVIDPYNGNTSYNQKFKGKATLTVDKSSSTAYMELNSLTSEDSAVYYCARGNYYYYAMDYWGQGTSVTVSS
# VL: DIVLTQSPASLAVSLGQRATISCRASESVSIHGTHLMYWYQQKPGQPPKLLIYAASNLESGVPARFSGSGSETDFTLNIHPVEEEDAATFFCQQSIEDPPTFGGGTKLEIK
# B11: Humab035-24 (antibody, V domains shown)
# VH: QVQLVQSGAEVKKPGASVKVSCKASDYTFTDYEMHWVRQAPGQGLEWIGAIDPETGGTAYNQKFKDRVTMTADTSTSTVYMELSSLRSEDTAVYYCAKTGYQFDYWGQGTTVTVSS
# VL: DIQMTQSPSSVSASVGDRVTITCKASQNVGSNVAWYQQKPGKAPKALIYSASYRYSGVPSRFSGSGSGTDFTLTISSLQPEDFATYYCQQYNSHPYTFGQGTKLEIK
# Molecular target: T1, OX40 (antigen of the competitive ELISA of Example 5) (UniProt P43489 29-214)
# T1 sequence (looked up): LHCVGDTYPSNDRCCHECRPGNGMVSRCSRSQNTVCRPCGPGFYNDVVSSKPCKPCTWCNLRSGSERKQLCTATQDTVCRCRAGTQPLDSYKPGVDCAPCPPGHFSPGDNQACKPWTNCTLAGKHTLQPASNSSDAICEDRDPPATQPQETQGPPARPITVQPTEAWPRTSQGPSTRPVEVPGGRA
# Assay: competitive ELISA; competitor MEDI0562
row,Binder,percentage of competition [%]
1,B1,97
2,B2,97
3,B3,96
4,B4,11
5,B5,16
6,B6,26
7,B7,2
8,B8,7
9,B9,59
10,B10,13

# Molecular target: T1, OX40 (antigen of the competitive ELISA …)
# Assay: competitive ELISA; competitor PF-04518600
row,Binder,percentage of competition [%]
1,B1,-2
2,B2,-2
3,B3,4
4,B4,93
5,B5,95
6,B6,11
7,B7,-8
8,B8,-7
9,B9,-5
10,B10,5

# Molecular target: T2, human-derived OX40, full-length, on cells (human, UniProt P43489 29-277)
# T2 construct: whole, on cells; also called hOX40; CHOK1-hOX40
# T2 sequence (looked up): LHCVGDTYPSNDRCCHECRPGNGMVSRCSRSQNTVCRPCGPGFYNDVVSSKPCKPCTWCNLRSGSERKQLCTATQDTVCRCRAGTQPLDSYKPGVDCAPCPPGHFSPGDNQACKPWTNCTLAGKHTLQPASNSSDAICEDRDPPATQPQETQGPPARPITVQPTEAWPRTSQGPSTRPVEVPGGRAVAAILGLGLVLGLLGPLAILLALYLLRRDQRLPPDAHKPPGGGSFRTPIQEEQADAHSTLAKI
# Assay: FACS on cells expressing human OX40 (CHOK1-hOX40)
row,Binder,binding result
1,B11,binds

# Molecular target: T1, OX40 (antigen of the competitive ELISA …)
# Assay: competitive ELISA; competitor BMS-986178
row,Binder,percentage of competition [%]
1,B1,0
2,B2,0
3,B3,1
4,B4,2
5,B5,3
6,B6,-4
7,B7,-6
8,B8,81
9,B9,90
10,B10,93

# Molecular target: T1, OX40 (antigen of the competitive ELISA …)
# Assay: competitive ELISA; competitor MOXR0916
row,Binder,percentage of competition [%]
1,B1,90
2,B2,-3
3,B3,90
4,B4,-2
5,B5,-3
6,B6,-3
7,B7,1
8,B8,-1
9,B9,3
10,B10,0

# — patent US20220017629A1 (SHANGHAI PHARMAEXPLORER, published 2022)
